The values below come from a protein production outcome set (Wang et al. 2014).

A short description of this series: label from the status in PepcDB records.
With “MGKQESEKTVTGSDGSGRYERKALIDKLYETQELSREEWIRLIEGRTPELSEYLFEKARAVREREYGKAVYIRGLIECSNYCRNNCYYCGIRRGNQNAQRYRLTADEILSCCENGYSLGFRTFVLQGGEDPAMTDGWVADVIRRIKKEFPDCAVTLSLGEKSEAAYQCLFDAGADRYLLRHETADADHYGKLHPDGLSLAHRMECLRTLKRIGFQTGCGFMVGSPGQTPECLAKDMAFIRELNPQMVGIGPFIPQHDTPFRDERAGAFEETLWLLGLIRLMLPRVLLPATTALGTIHPKGRELGMLAGANVVMPNLSPLGVRKKYLLYDNKICTGDEAAESLNSLKESMKAIGYEVAVGRGDYRL”, the protein production result is “failed”.
On to “MGKRLYAVAYDIPDDTRRVKLANLLKSYGERVQLSVFECYLDERLLEDLRRRARRLLDLGQDALRIYPVAGQVEVLGVGPLPELREVQVL”, for which the protein production result is listed as “not failed”.
As for “MGKRMLSMFHPFEIALCGLSGSGKTTLLEKLIRRFSTDGFEVAAFKHGCHRFDIDREGKDSDRFRRAGAVPVLIVDREKEALISSGTGRLDIAGLTLNADLLFIEGFKELPVPKVLLIDERREILPSLESGAIPEVLALAHDGDAEDMERFGLPLFHRDDVARISDFSAEFFRRAAQSVPLNGLVLAGGRSLRMGRDKAQLRYHEASQLDRTAALLGGVCNEVFISCRSDQLDQYSDARLPGIADSYLDLGPLGGLLSAQRHAPGAAWLVAACDLPFIDEAVIAALRAGRHPFRFGTAFAGSDGRPEPLLAIYEPKSRRRLLERHASGNDSLRAFLMNSRVQFIEPNDASKLRNVNDPAAMDDALRAISKGGQLEHHHHHH”, the protein production result is “failed”.
“MGKTLTGFHLKVIGVISMVFDHLLQFFSFLGVPGWFGWIGRIAAPIFLFESSEGFIHTSNRRKYMFRLLLGFWIMGILNGFLNAYFSTGGLIINNIFGTLFLGTVYMQSMDYFKQKQIGKGLLWFIVPLLISALPLVVFSSPDILSNPAILIGFQIFNLIVPSLMMTEGGFLFVLLAVAFYLFHGKKWLQISAIGVVALISAASYNFQELFGVNHQWMMILAAIPIVLYNGEKGRGMRNFFYIFYPAHIAIFAIISFFMQR”: the protein production entry is recorded as “failed”.
In the case of “MGKTRAGRFALRGQRTALLHLETMTQAVDSADSVDPRALEALNRYFGYDSFRPGQSGIVSAILTGHDVLGVMPTGAGKSICYQIPAAILPGVAIVISPLISLMRDQVDALNDVGLPAAFINTTQTPDEQDLVFAQALSGQIKLLYVAPERLETERFRNFAVRVPISLVAVDEAHCVSQWGQDFRSSYLGIGEFIAGLPTRPTVAAFTATATERVRRDIVSILGLHTPSITVTGFDRPNLYFDVISMPRKDKASWVASYIASHPDESGIVYCATRKETEALAESLNSAVAELRAAGGADVSDIGTIAVAYHGGMSADAREKAQRDFVTDRVPVVVATNAFGMGIDKSNVRFVIHHNMPESIEAYYQEAGRAGRDGEPSRCTLLWNESDIVTRRRLLDSDYENERLTPEEQEAVRASKRRLLDAMVGYCRTTDCLHAYMTRYFGETAGAAAKTDGKCVGGCANCEHTFETIDVTDIARAISRCVHDVNQHVGSGKIVKVLRGSKAQDLSYLNPESLPSFGMLDEVPEARIRDVLSQMATDGFLTIAEGRLPIVGFGPRAAETVAPEFHYDIKKIKRADARARRTPDVSTPAVGSYVPDDGDEALFQKLRALRLDIARELGKPPYIVFSDKTLRDMVRVKPITDDQFLAVNGVGESKLKQYGERFLAAIREDSGDEA” it was “failed”.
In the case of “MGKVILVTGVSRGIGKSIVDVLFSLDKDTVVYGVARSEAPLKKLKEKYGDRFFYVVGDITEDSVLKQLVNAAVKGHGKIDSLVANAGVLEPVQNVNEIDVNAWKKLYDINFFSIVSLVGIALPELKKTNGNVVFVSSDACNMYFSSWGAYGSSKAALNHFAMTLANEERQVKAIAVAPGIVDTDMQVNIRENVGPSSMSAEQLKMFRGLKENNQLLDSSVPATVYAKLALHGIPDGVNGQYLSYNDPALADFMP” it was “not failed”; in that of “MGKVSFGFLGLMLVVVVIGVVECRRFEKETLGGGGGGGLGGGFGGGKGFGGGIGAGGGFGGGAGGGAGGGLGGGAGGGGGIGGGAGGGAGGGLGGGAGGGLGGGHGGGIGGGAGGGAGGGLGGGHGGGIGGGAGGGSGGGLGGGIGGGAGGGAGGGGGLGGGHGGGIGGGAGGGAGGGLGGGHGGGIGGGAGGGSGGGLGGGIGGGAGGGAGGGGGAGGGGGLGGGHGGGFGGGAGGGLGGGAGGGTGGGFGGGAGGGAGGGAGGGFGGGAGGGAGGGFGGGAGGGAGGGAGGGFGGGAGGGHGGGVGGGFGGGSGGGFGGGAGGGAGGGAGGGFGGGGGAGGGFGGGF”, “failed”; in that of “MGKYTSEHHKDSRIVQLFQDGQYFYHKGLKAYRERNLSRASKLIQRAIFLEPENTGMLSQLAVIYTEMGFYQQSNELLDFILKNINEKMTECYYFKANNYAHLGLFQEAYKAAETYLKEDPDGEFSEENAELLDLLDMGEEDQGYSQFDQDDLILKQDRAKSLLENGQLQESIAMLEEIISDYPEFWSAYNNLALAYFYAGDVQKAKTTVFTVLEKSHGNLHALCNLLIFYHYERRDDKVEALSEQLSNIYPMLFEQRYKLGATLALVGRYDLGFKWLKSLYRMGFEGDETFYYWLACSAYYTGRVQFARSVWKKMQEEYPDDARMEPWKERKEKRPVQRPLEERLAAYYISGRKGEKAQLKAVLDSQMAKTPFEDQFVRLVLYGESGAAVDSKDALLAYRTAKAIEQADQSAMEQEAMCFWIFHVIQQIRAYGLQLKNAGGLAAAIYYIWKTEHQERLTKAETAKIFQISPGTLSKYERTLKEHL”, “failed”.
Take “MGLAASEALQGSEQEINSAFSNQITPVISGDYIVWQDERDGNWDIYMYDMSAGRTETSLFNGPKDEIEPAISGSRVVLADNRRGNYDIYMYDISTKKEVQVTSDKSEQKEPAISEDIIVWTDRRNQNTDIYMYDLTTKEETRITDDKADQSQPAVWGNIIVWKDTRNGNEDIYMYDISAGKESPVVMDSAAQTNPVIEGDYIVWEDRRAGNLDIYMYEISTGKEKPVCTDPSPQKTPAISDGRIVWADGRIKGTNIFIYDIATGQEKTVSTASEYESNPSIDGNRIVWQDKRKGAMDIFMFTEDASETESTAGEKTEAETGSKAPLGIYPVSAGVIAAYLMINSGKKGKRKTLEHHHHHH”: the protein production result is listed as “failed”.
With “MGLGIVLQGEKQVVIGDQILTYCAGQTMLTTIDVPVVSHTHNAKNHKPFLGLMLLLDLSMISKVVTQMEQLNIKEKVQPSFAVQPIDYVLIEAVQRLVTLLDEPILLSQLSPIIQQEIMIRLLAGVNGVYLRQLIRVGSVSERVAKVVNWLKQNFVETIRLDELADRFYMSSATLRQHFREVTGMSPLQYQKHLRLQQARHLLFNQNLEVGHTADLVGYESVSQFSREYARLFGATPLKDKQAAQLS”, the protein production entry is “failed”.
In the case of “MGLIDRYLAREILLPFAAALLFLTQILLATQILGQADVLFGSGVSLVDVGLVMLSLMPHLLGYVIPVAFLLGVVLGVGRLAEDREVVALGAAGLSPVRLVRVPLLLGLVVAALGAWLSLSVEPASIRAARLRLNDVVKRNVTNDVRGGTFYDQIPGYTIYTERARGGRWENVLIQDRSNPDAPMLALSRRGRLEPVGAGQDMRLVLEQGEVHREEVGTADYASAAFGKAELLVGLGTALSDRNVLAKSSREATVSDLRARAAAAREKGDVVEERRQEGYLHRKLSAPLVVVAFALLGVPLGAERRGGRAFGMGATFLLVVVHYLLLRGGEVLTQLGHLPAAFALQLPNLVLGAAGVALVLLMARRGPEAVR” it was “failed”; in that of “MGLRDAEVRRAWAARLASWLPAPPGDVLDLGCGTGSLSLLAAEQGHRVTGVDLSPAMVELARTKLAGRDAVFLTGDAAAPPVGEQRFDAVLVRHVLWTLPDPGRALRHWRQLLRPGGRLVLVEGVWGSVSPVGIPADRVTALLGPLTGQARVERLSDDPSLWGREVADERYAVVATYGLEHHHHHH”, “failed”; in that of “MGMAAESQFHVLAVDDSLFDRKLIERLLQKSSCQVTTVDSGSKALEFLGLRQSTDSNDPNAFSKAPVNHQVVEVNLIITDYCMPGMTGYDLLKKVKESSAFRDIPVVIMSSENVPARISRCLEEGAEEFFLKPVRLADLNKLKPHMMKTKLKNQKLEEIETTSKVENGVPTAVADPEIKDSTNIEIEILPLQQDLLLVQQEEQTLSINNKRKSVEEGISTDRARPRFDGIATAV”, “failed”.
Regarding “MGMTRNLLAAGLAAVLALPALAAELVMVEQHGCEWCARWNEEIAPIYPKTAEGAFAPLRRVDLRAIPADLETARRVVFTPTFLIVEDGRELARLEGYPGEDFFWPLLEQLLVDHAGFVPKKPGSS”, the protein production result is “failed”.
With “MGNFMDDQCLLHASALTYSTLLSIVPFFALAFAVLKGLGVQNTLEPFILDQVAAGSHEIVDRIVTYINNTKVGSLGAVGLVTLVVSTVTLLGNIEETFNSIWGVRETRSLYRRFSDYLSVVVFGPILIFAAISVTTTLESQKAVQWLIGTAYLGDVLVAAFRLVPYVSIWLALVFLYMLIPNTKVRFRSALVGGVIAGTLWQAAQWGYIHFQVGVAKYNAIYGTLAVLPVFMIWLYASWSIVLFGVEVVYAHQHRRTFRHETHIPDLEPAARERLALALLLEVCRTFFRDGAPWNAERLAERLDVPERTARETLGMLVAKGWLAESCGEETLYLPARELEHMRVRELIASLRGHAMPLATGRFDPAVEWLAARMEGAVAAELGEVNFRTLAEGGGVD”, the protein production result is recorded as “failed”.
Consider “MGNGLMSKKKKKKNNKYKKKRPNVSRNCDWSKFCSDVLRKIFETLKSPIDSHRAFARISIQFGKHARTSLHVHGDSYTKVILPPSGNCLLMVDRRLKFYILNLLTRTTINLPSMSLIRGGQVFFKPQNEWSNDSGCFFGPSRNGNVSYDFDSVEWKNSVAVLWINETTGDYVVAWTFIQHYLFFYKSGYWSWCNLNHNGKSLVVFDMACENNKLYLYTANHHIRIFDFSGAYPMEKKTENPYWKYLFNAVEEPWEYVWKRKIAIQKSSGEVLIILSLKQVFYEAERLLFYIFKMNLESFKWERVYSLGDEMLVFGQGVTIPTALKDLGDGIKSDSIYFVDKDVWPDHQDHDRRVSNCGVFNIATSKIKWPTKKYRSVNETQWFVLGVAY”, for which the protein production entry was “failed”.
For the sequence “MGNHAGKRELNAEKASTNSETNRGESEKKRNLGELSRTTSEDNEVFGEADANQNNGTSSQDTAVTDSKRTADPKNAWQDAHPADPGSRPHLIRLFSRDAPGREDNTFKDRPSESDELQTIQEDSAATSESLDVMASQKRPSQRHGSKYLATASTMDHARHGFLPRHRDTGILDSIGRFFGGDRGAPKRGSGKVSSEE”, the protein production result is “failed”.
For the sequence “MGNKRFRSDNNAGKPTSVEATRIWATKVIEDFRASGNEVYTFEHNLSNNERGVIHQMCRKMGIQSKSSGRGEQRRLSIFKSRHKNGNKNEANEKSNKEKLKCVSFPPGADVILQELFTHYPPCDGDTAATSFTKYSGNKGKQGQWKDDFFRKPQISSEEILEKVASLSSRLKKDKALKEITKLRSKLPITSFKDAITSAVESNQVL”, the protein production entry is recorded as “failed”.
In the case of “MGNLTTILYFAYAPALALLWYFYHQDRLEPEPKRVVIGTFILGGTLSVSVALIVESLLVPRWFPRIPALLPATFLYISLIAGIVEEPAKALAIKYAYNSGHLYGIMDGVVYGVAAGLGFAATENLLYGLGYGVHVTIQRALLTPIGHATWSAIVGVGYGLKAEGKVYTLAPYFTLAVLLHFLWDYYAFMSSISPVYYGIVLLIFTINVLIIRWLIILGRKEDMERFWWYRILGGRRW”, the protein production result was “failed”.
“MGNNSESKGSASDSKGAETFTYKAENGNVKIPKHPKRVVVMADGYYGYFKTLGINVVGAPENVFKNPYYKGKTNGVENIGDGTSVEKVIDLNPDLIIVWTTQGADIKKLEKIAPTVAVKYDKLDNIEQLKEFAKMTGTEDKAEKWLAKWDKKVAAAKTKIKKAVGDKTISIMQTNGKDIYVFGKDFGRGGSIIYKDLGLQATKLTKEKAIDQGPGYTSISLEKLPDFAGDYIFAGPWQSGGDDGGVFESSIWKNLNAVKNGHVYKMDPIGFYFTDPISLEGQLEFITESLTKLEHHHHHH”: the protein production result is on record as “not failed”.
